In patent publication CN113956352A (FUJIAN MEDICAL UNIV UNION HOSPITAL, dated 2022):
Positions count from the first letter of the chain named.

B1: R157 (antibody, V domains shown)
VH: QVQLVQSGAEVKKPGSSVKVSCKASGGTFSSYAINWVRQAPGQGLEWMGGIIPILGIANYAQKFQGRVTITADKSTSTAYMELSSLRSEDTAVYYCAREQGYSGSGANYYFDYWGQGTLVTVSS
VL: QSVLTQPPSVSGAPGQRVTVSCTGSSSNIGAGYDVHWYQQLPGTAPKLLIYGNTNRPSGVPDRFSGSKSGTSASLAITGLQAEDEADYYCQSYDSSLSDVVFGGGTQLTVL
B2: R14 (antibody, V domains shown)
VH: B1 VH with A33T, N35S, G50R, Q100I, G104S, A107S, F111M, Y113V, Q116K, L119T
VL: B1 VL with V20I, T54S, D99G, Q107K
B3: R44 (antibody, V domains shown)
VH: QVQLVQSGGGLVQPGGSLRLSCAASEITVSSNYMSWVRQAPGKGLEWVSVLYSGGSTDYADSVKGRFTISRDNSKNTLYLQMNSLRAEDTAVYYCAREVYGMDVWGQGTTVTVSS
VL: DIVLTQTPSSLSASVGDRVTITCRASQGISSYLAWYQQKPGKAPKLLIYAASTLQSGVPSRFSGSGSGTDFTLTISSLQPEDFATYYCQELSTYPVTFGQGTKVEIK
B4: R29 (antibody, V domains shown)
VH: EVQLLESGGGLVQPGRSLRLSCAASGFTFDDYGIHWVRQAQGKGLEWVSGISWNSGTIGYADSVKGRFTISRDNAKNSLYLQMNSLRAEDTALYYCAKDRGGKLRWYEREEYYFDYWGQGTLVTVSS
VL: SYVLTQPPSVSVAPGQTAKITCGGNDIGRKSVYWYQQKPGQAPILVIYYSSDRPSGIPDRFSGSNSGNTATLTIGRVEAGDEADYYCQVWDSTSDHVIFGGGTKLTVL

What was measured:
[1] = molecular target: SARS-CoV-2 RBD蛋白 (ELISA coating antigen) (SARS-CoV-2, UniProt P0DTC2 319-541); experiment: ELISA, plate coated with SARS-CoV-2 RBD, antibody 1 μg/mL, goat anti-human IgG-HRP
[2] = molecular target: SARS-CoV-2 S-RBD蛋白 (Acrobiosystems, cat.# SPD-C52H3) (SARS-CoV-2, UniProt P0DTC2 319-537); experiment: SPR (Biacore 8K), antibody captured on Protein A chip, S-RBD 50-0.78125 nM, 1:1 Langmuir fit
SARS-CoV-2 S蛋白 (刺突糖蛋白) = SARS-CoV-2 S蛋白 (刺突糖蛋白) (SARS-CoV-2, UniProt P0DTC2 14-1273); experiment: cell-based or functional assay

| Binder | ELISA值 (OD450) [1] [OD450] | Kd [2] [nM] | 假病毒的抑制率IC50 (Luciferase RLU, Spike假病毒, 293T-ACE2细胞) (SARS-CoV-2 S蛋白 (刺突糖蛋白)) [µg/mL] |
| --- | --- | --- | --- |
| B1 | 1.14 | – | – |
| B2 | 1.01 | – | – |
| B3 | 1.17 | 0.205 | 1.6 |
| B4 | 1.06 | – | – |
